The target of one data set is T1, mouse SAS1B (Mus musculus, UniProt Q6HA09).
T1 sequence (Q6HA09 24-435): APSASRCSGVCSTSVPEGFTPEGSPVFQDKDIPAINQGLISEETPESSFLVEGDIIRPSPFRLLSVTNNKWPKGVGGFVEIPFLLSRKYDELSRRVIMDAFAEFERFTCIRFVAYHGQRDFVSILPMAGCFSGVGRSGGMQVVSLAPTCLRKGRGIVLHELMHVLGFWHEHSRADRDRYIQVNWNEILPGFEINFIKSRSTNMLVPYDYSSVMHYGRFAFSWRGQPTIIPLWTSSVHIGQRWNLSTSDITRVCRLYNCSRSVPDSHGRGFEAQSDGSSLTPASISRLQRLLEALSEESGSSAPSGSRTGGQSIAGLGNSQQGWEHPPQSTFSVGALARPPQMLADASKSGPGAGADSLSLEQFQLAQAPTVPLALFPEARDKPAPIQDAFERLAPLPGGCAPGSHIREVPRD
Kind of data set: Western blot of mouse SAS1B probed with anti-human SAS1B murine mAbs. In kind it is binding. As to conditions: Table 1. An excerpt: A western blot of human SAS1B and mouse SAS1B was probed with anti-human SAS1B murine monoclonal antibodies SB1, SB2, SB3, SB4, SB5, SB6, and SB7.
A general note: A western blot detects proteins with antibodies after separation by electrophoresis.

Data set [1] has as its system human pancreatic cancer cell MPanc96. In words: ADC cytotoxicity assay (total cellular ATP), MPanc96. In kind it is cell-based. As to conditions: 0.1 nM mAb, Fab-DMDM constant at 15 nM, ~72 hours. The protocol:
The cytotoxic effect of anti-human SAS1B mAbs SB2, SB4, SB5 on human pancreatic cancer cell MPanc96 was determined by ADC assay. Human pancreatic cancer cells MPanc96 were seeded in triplicate on 96 well plates (1100 cells per well) overnight and then treated with SB2, SB4, SB5, and […] (anti-CABYR) and anti-mouse Fab-cleavable-Duocarmycin complex for ˜72 hours. The presence of viable live cells per well was measured by total cellular ATP content in relative luminescence unit (RLU). […] The anti-SAS1B mAbs SB2, SB4, and SB5 killed 80%, 64%, 57% of cells, respectively, at 1 nM concentration when Fab-DMDM was kept constant at 15 nM for all primary antibody dilutions. SB2 killed 67% of cells at 0.1 nM concentration. […] Staurosporine, a general protein kinase inhibitor, which induces apoptosis, was used as a positive control and DMSO was used as a negative control. The data are shown in FIG. 7A-B and represent an average of triplicate experiments.

For another data set, the system named is SAS1B+ tumor cell lines. Kind of data set: Confocal immunofluorescence microscopy on live cells (FIG. 25). In kind it is cell-based. An excerpt:
Bioassays to select therapeutic and diagnostic mAbs have focused on two strategies: 1) identification of mAbs reactive with recombinant SAS1B, endogenous SAS1B, and with SAS1B accessible on cell surfaces; and 2) mAbs that recognize epitopes preserved in formalin fixed paraffin embedded sections that work as immuno-cytochemical probes. […] These transfected cells provide one effective screening tool to identify mAbs reactive with native epitopes on SAS1B. Another screening assay is to study SAS1B+ tumor cell lines by immunofluorescence microscopy and FACS. mAbs that recognize SAS1B at the surface of live cells and gate specific cell populations by FACS have been isolated. […] Efforts to identify mAbs that localize SAS1B in fixed embedded sections have also yielded reagents of utility for histopathology. […] Thus the non-human primate ovary can be used as a positive control tissue for studying the histopathology of tumor specimens with these reagents.

In data set [2] the test system is human uterine cancer cells (MMMT539). In words: Antibody drug conjugate cytotoxicity (ADC) assay, MMMT539. In kind it is cell-based. As to conditions: 0.1 nM mAb, Fab-DMDM constant at 15 nM, ~90 h. The protocol:
The cytotoxic effect of anti-human SAS1B mAbs SB2 and SB5 on human uterine cancer cells (MMMT539) was examined by antibody drug conjugate cytotoxicity (ADC) assay. Human uterine cancer cells MMMT539 were seeded in triplicate on 96 well plate overnight and then treated with SB2 or SB5 and anti-mouse Fab-cleavable-Duocarmycin complex for ˜90 h. The presence of viable live cells per well was measured by total cellular ATP content in relative luminescence unit (RLU). Viability of control live cells (100%) was determined from average of 9 wells in terms of total cellular ATP (in RLU) containing the constant 15 nM Fab-CL-DMDM for each set of antibody/reagent. […] Staurosporine, a general protein kinase inhibitor, was used to induce apoptosis in 1% DMSO as a positive control for the assay.

Another data set deals with renal carcinoma cells. Kind of data set: ADC assay on renal carcinoma cells. The class given is cell-based. As to conditions: 15 nM Fab-DMDM, 4 days. How it is done:
The cytotoxic effect of anti-EGFR (AY13), anti-SAS1B (SB2) and anti-CABYR (3A4) monoclonal antibodies on renal carcinoma cells were tested by ADC assay. An average of 3 experiments in triplicate is reported.

The source of these data is patent publication US20210269549A1, “ANTI-SAS1B ANTIBODIES, ASSOCIATED METHODS OF USE, AND COMPOSITIONS AND METHODS FOR DETECTING AND TREATING CANCER” (UNIVERSITY OF VIRGINIA PATENT FOUNDATION, priority 2015, published 2021).

B1: SB1: mouse anti-SAS1B monoclonal antibody, IgG2a; VH SEQ ID NO:12, VL SEQ ID NO:13 (antibody, listed as Mus musculus, V domains shown)
VH: EVQLQQSGPELVKPGSSVKISCKASGYTFTDYNMDWVKQSHGKSLEWIGAINPNNGGTSYNQKFKGKATLTVDKSSSTAYMELRSLTSEDSAVYYCATNEYWGQGTTLTVSS
VL: NIVMTQSPKSMSMSVGERVTLSCKASENVGTYVSWYQQKPEQSPKLLIYGASNRYTGVPDRFTGSGSATDFTLTISSVQAEDLADYHCGQSYSYPWTFGGGTKLEIK
With B1, the “Specifically binds mouse and human SAS1B” value with mouse SAS1B was “Yes”.

B2: SB2: mouse anti-human SAS1B monoclonal antibody, IgG2b; VH SEQ ID NO:14, VL SEQ ID NO:15 (antibody, listed as Mus musculus, V domains shown)
VH: EVQLQQSGPELVKPGSSVKISCKASGYTFTDYNMVWVKQSHGKSLEWIGAVNPNNGGTSYNQKFKGKATLTVDKSSSTAYMELRSLTSEDSAVYYCVPNWDWFAYWGQGTLVTVSA
VL: DVLMTQTPLSLPVSLGDQASISCRSSQSLVHSNGNTYLEWYLQKPGQSPNLLIYKVSNRFSGVPDRFSGSGSGTDFTLKISRVEAEDLGVYYCFQGSHVPFTFGSGTKLEIK
B2 gave a Cells killed in data set [1] of 67%. The “Binding of SAS1B on live cells” value in the data set on SAS1B+ tumor cell lines was “bind SAS1B on live cells”. Moreover, the Cancer cells killed in data set [2] worked out at 87%. In the data set with renal carcinoma cells, the “Cytotoxic effect” value is “cytotoxic effect at 0.01, 0.1 nM and higher concentrations”.

B3: SB5: mouse anti-human SAS1B monoclonal antibody, IgG2b; VH SEQ ID NO:16, VL SEQ ID NO:18 (antibody, listed as Mus musculus, V domains shown)
VH: EVQLQQSGPELVKPGSSVKISCKPSGYTFTDYNMVWMKQSHGKSLEWIGAINPNNGGTTYNQKFKGKATLTVDKSSSTAYMELRSLTSEDSAVYYCAPNWDWFAYWGQGTLVTVSA
VL: DVLMTQIPLSLPVSLGDQASISCRSSQSILHSNGNTYLEWYLQKPGQSPKLLIYKVSNRFSGVPDRFSGSGSGTDFTLKISRVEAEDLGVYYCFQGSHVPFTFGSGTKLEIK
As for B3, in data set [2], the Cancer cells killed amounted to 75%.
